Test results taken from doi:10.1101/2025.03.20.644338 (bioRxiv, 2025).

Assays:
Test in all cases: ITC
[1] = target: wild-type mouse Rbpj core (residues 53-474) (mouse, UniProt P31266 53-474)
[2] = target: mouse Rbpj core (residues 53-474) F92V variant (mouse, UniProt P31266 53-474, F92V)
[3] = target: mouse Rbpj core (residues 53-474) S358R variant (mouse, UniProt P31266 53-474, S358R)
[4] = target: mouse Rbpj core (residues 53-474) R91G variant (mouse, UniProt P31266 53-474, R91G)

Measured: binding result

Sequence of wild-type mouse Rbpj core (residues 53-474) (P31266 53-474): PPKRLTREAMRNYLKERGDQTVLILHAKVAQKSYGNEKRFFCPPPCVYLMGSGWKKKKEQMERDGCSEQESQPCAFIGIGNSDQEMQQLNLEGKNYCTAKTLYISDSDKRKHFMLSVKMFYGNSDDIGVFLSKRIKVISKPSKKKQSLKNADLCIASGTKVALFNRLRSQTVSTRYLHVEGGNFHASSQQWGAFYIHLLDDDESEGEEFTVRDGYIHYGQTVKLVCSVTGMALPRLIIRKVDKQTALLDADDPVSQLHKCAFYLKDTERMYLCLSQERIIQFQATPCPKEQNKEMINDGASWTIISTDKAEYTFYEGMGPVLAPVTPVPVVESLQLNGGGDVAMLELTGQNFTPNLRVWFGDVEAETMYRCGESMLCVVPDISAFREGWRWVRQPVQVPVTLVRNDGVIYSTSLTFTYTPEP
Sequence of mouse Rbpj core (residues 53-474) F92V variant (P31266 53-474 F92V): as the sequence (P31266 53-474) above, with F40V counted along it
Sequence of mouse Rbpj core (residues 53-474) S358R variant (P31266 53-474 S358R): as the sequence (P31266 53-474) above, with S306R counted along it
Sequence of mouse Rbpj core (residues 53-474) R91G variant (P31266 53-474 R91G): as the sequence (P31266 53-474) above, with R39G counted along it

B1: human SHARP residues 2776-2833 (domain or fragment)
chain: RASANENSRFHPGSMPVIDDRPADAGSGAGLRVNTSEGVVLLSYSGQKTEGPQRISAK
binds: [1] | [2] | [3]

VLLSRKRRRQHGQLWFPEGFKVSEASKK [peptide consisting of residues 1754-1781 of human NOTCH1]
binds: [1] | [2] | [4] | [3]
